# Measurements taken from the supplement of paper PMC11246515.
# ± gives the standard deviation of the averaged measurements.
# Assay: total protein half-life in vivo (active degradation + dilution); higher = more stable protein
# [1] = E. coli NCM3722 delta-clpP delta-lon delta-hslV, growth: N-lim chemostat, doubling time 6 h
# [2] = E. coli NCM3722 delta-clpP, growth: N-lim chemostat, doubling time 6 h
# [3] = E. coli NCM3722 delta-hslV, growth: N-lim chemostat, doubling time 6 h
# [4] = E. coli NCM3722 delta-lon, growth: N-lim chemostat, doubling time 6 h
# [5] = E. coli NCM3722 delta-smpB, growth: N-lim chemostat, doubling time 6 h
# [6] = wild type E. coli NCM3722, growth: C-lim chemostat, doubling time 6 h
# [7] = wild type E. coli NCM3722, growth: C-lim chemostat, doubling time 12 h
# [8] = wild type E. coli NCM3722, growth: N-lim chemostat, doubling time 6 h
# [9] = wild type E. coli NCM3722, growth: N-lim chemostat, doubling time 12 h
# [10] = wild type E. coli NCM3722, growth: P-lim chemostat, doubling time 6 h
# [11] = wild type E. coli NCM3722, growth: C-lim chemostat, doubling time 3 h
# [12] = wild type E. coli NCM3722, growth: P-lim chemostat, doubling time 12 h
Sequence,total protein half-life in vivo [1],total protein half-life in vivo [2],total protein half-life in vivo [3],total protein half-life in vivo [4],total protein half-life in vivo [5],total protein half-life in vivo [6],total protein half-life in vivo [7],total protein half-life in vivo [8],total protein half-life in vivo [9],total protein half-life in vivo [10],total protein half-life in vivo [11],total protein half-life in vivo [12]
MAITGIFFGSDTGNTENIAKMIQKQLGKDVADVHDIAKSSKEDLEAYDILLLGIPTWYYGEAQCDWDDFFPTLEEIDFNGKLVALFGCGDQEDYAEYFCDALGTIRDIIEPRGATIVGHWPTAGYHFEASKGLADDDHFVGLAIDEDRQPELTAERVEKWVKQISEELHLDEILNA,5.32 ± 1.2 h,5.07 ± 0.65 h,4.45 ± 0.27 h,4.59 ± 0.44 h,4.64 ± 0.75 h,5.31 ± 0.73 h,7.02 ± 3 h,4.71 ± 0.14 h,8.16 ± 0.92 h,6.33 ± 0.46 h,–,–
MRLEVFCEDRLGLTRELLDLLVLRGIDLRGIEIDPIGRIYLNFAELEFESFSSLMAEIRRIAGVTDVRTVPWMPSEREHLALSALLEALPEPVLSVDMKSKVDMANPASCQLFGQKLDRLRNHTAAQLINGFNFLRWLESEPQDSHNEHVVINGQNFLMEITPVYLQDENDQHVLTGAVVMLRSTIRMGRQLQNVAAQDVSAFSQIVAVSPKMKHVVEQAQKLAMLSAPLLITGDTGTGKDLFAYACHQASPRAGKPYLALNCASIPEDAVESELFGHAPEGKKGFFEQANGGSVLLDEIGEMSPRMQAKLLRFLNDGTFRRVGEDHEVHVDVRVICATQKNLVELVQKGMFREDLYYRLNVLTLNLPPLRDCPQDIMPLTELFVARFADEQGVPRPKLAADLNTVLTRYAWPGNVRQLKNAIYRALTQLDGYELRPQDILLPDYDAATVAVGEDAMEGSLDEITSRFERSVLTQLYRNYPSTRKLAKRLGVSHTAIANKLREYGLSQKKNEE,6.71 ± 0.79 h,4.83 ± 0.089 h,4.73 ± 0.23 h,6.13 ± 0.71 h,4.6 ± 0.14 h,5.844 ± 0.052 h,8.21 ± 0.57 h,4.51 ± 0.34 h,8.243 ± 0.066 h,4.84 ± 0.092 h,2.69 ± 0.14 h,9.34 ± 0.13 h
MNMLALTIILPLIGFVLLAFSRGRWSENVSAIVGVGSVGLAALVTAFIGVDFFANGEQTYSQPLWTWMSVGDFNIGFNLVLDGLSLTMLSVVTGVGFLIHMYASWYMRGEEGYSRFFAYTNLFIASMVVLVLADNLLLMYLGWEGVGLCSYLLIGFYYTDPKNGAAAMKAFVVTRVGDVFLAFALFILYNELGTLNFREMVELAPAHFADGNNMLMWATLMLLGGAVGKSAQLPLQTWLADAMAGPTPVSALIHAATMVTAGVYLIARTHGLFLMTPEVLHLVGIVGAVTLLLAGFAALVQTDIKRVLAYSTMSQIGYMFLALGVQAWDAAIFHLMTHAFFKALLFLASGSVILACHHEQNIFKMGGLRKSIPLVYLCFLVGGAALSALPLVTAGFFSKDEILAGAMANGHINLMVAGLVGAFMTSLYTFRMIFIVFHGKEQIHAHAVKGVTHSLPLIVLLILSTFVGALIVPPLQGVLPQTTELAHGSMLTLEITSGVVAVVGILLAAWLWLGKRTLVTSIANSAPGRLLGTWWYNAWGFDWLYDKVFVKPFLGIAWLLKRDPLNSMMNIPAVLSRFAGKGLLLSENGYLRWYVASMSIGAVVVLALLMVLR,7.03 ± 0.33 h,7.32 ± 0.33 h,6.62 ± 0.33 h,5.89 ± 0.59 h,6.017 ± 0.032 h,7.19 ± 1.1 h,12.1 ± 1.4 h,–,15.6 h,6.74 ± 0.88 h,3.23 h,11.1 ± 1.1 h
MKKFALLAGLFVFAPMTWAQDYNIKNGLPSETYITCAEANEMAKTDSAQVAEIVAVMGNASVASRDLKIEQSPELSAKVVEKLNQVCAKDPQMLLITAIDDTMRAIGKK [P0AB46],3 ± 0.32 h,4 h,6.28 h,–,4.66 ± 0.55 h,4.69 ± 0.2 h,6.77 ± 0.093 h,4.93 h,10.1 ± 2.6 h,4.4 ± 1.1 h,2.77 h,8.95 ± 0.44 h
MANKPSAEELKKNLSEMQFYVTQNHGTEPPFTGRLLHNKRDGVYHCLICDAPLFHSQTKYDSGCGWPSFYEPVSEESIRYIKDLSHGMQRIEIRCGNCDAHLGHVFPDGPQPTGERYCVNSASLRFTDGENGEEING [P0A746],–,3.48 ± 0.34 h,3.1 ± 0.16 h,3.91 ± 0.56 h,2.55 ± 0.31 h,4.02 ± 0.54 h,5.47 ± 0.75 h,3.22 ± 0.13 h,4.64 ± 0.16 h,2.79 ± 0.38 h,1.95 ± 0.59 h,6.29 ± 0.15 h
MTAKTAPKVTLWEFFQQLGKTFMLPVALLSFCGIMLGIGSSLSSHDVITLIPVLGNPVLQAIFTWMSKIGSFAFSFLPVMFCIAIPLGLARENKGVAAFAGFIGYAVMNLAVNFWLTNKGILPTTDAAVLKANNIQSILGIQSIDTGILGAVIAGIIVWMLHERFHNIRLPDALAFFGGTRFVPIISSLVMGLVGLVIPLVWPIFAMGISGLGHMINSAGDFGPMLFGTGERLLLPFGLHHILVALIRFTDAGGTQEVCGQTVSGALTIFQAQLSCPTTHGFSESATRFLSQGKMPAFLGGLPGAALAMYHCARPENRHKIKGLLISGLIACVVGGTTEPLEFLFLFVAPVLYVIHALLTGLGFTVMSVLGVTIGNTDGNIIDFVVFGILHGLSTKWYMVPVVAAIWFVVYYVIFRFAITRFNLKTPGRDSEVASSIEKAVAGAPGKSGYNVPAILEALGGADNIVSLDNCITRLRLSVKDMSLVNVQALKDNRAIGVVQLNQHNLQVVIGPQVQSVKDEMAGLMHTVQA,–,–,–,–,–,–,2.5 ± 0.29 h,–,–,–,1.42 ± 0.085 h,–
